# Assay results from patent publication US20210139579A1.
# Biological target: human ROR1 (hROR1) on the cell surface (human) (UniProt Q01973)
# Experiment: cell-based or functional assay
# Sequence of human ROR1 (hROR1) on the cell surface (human) (Q01973 30-937): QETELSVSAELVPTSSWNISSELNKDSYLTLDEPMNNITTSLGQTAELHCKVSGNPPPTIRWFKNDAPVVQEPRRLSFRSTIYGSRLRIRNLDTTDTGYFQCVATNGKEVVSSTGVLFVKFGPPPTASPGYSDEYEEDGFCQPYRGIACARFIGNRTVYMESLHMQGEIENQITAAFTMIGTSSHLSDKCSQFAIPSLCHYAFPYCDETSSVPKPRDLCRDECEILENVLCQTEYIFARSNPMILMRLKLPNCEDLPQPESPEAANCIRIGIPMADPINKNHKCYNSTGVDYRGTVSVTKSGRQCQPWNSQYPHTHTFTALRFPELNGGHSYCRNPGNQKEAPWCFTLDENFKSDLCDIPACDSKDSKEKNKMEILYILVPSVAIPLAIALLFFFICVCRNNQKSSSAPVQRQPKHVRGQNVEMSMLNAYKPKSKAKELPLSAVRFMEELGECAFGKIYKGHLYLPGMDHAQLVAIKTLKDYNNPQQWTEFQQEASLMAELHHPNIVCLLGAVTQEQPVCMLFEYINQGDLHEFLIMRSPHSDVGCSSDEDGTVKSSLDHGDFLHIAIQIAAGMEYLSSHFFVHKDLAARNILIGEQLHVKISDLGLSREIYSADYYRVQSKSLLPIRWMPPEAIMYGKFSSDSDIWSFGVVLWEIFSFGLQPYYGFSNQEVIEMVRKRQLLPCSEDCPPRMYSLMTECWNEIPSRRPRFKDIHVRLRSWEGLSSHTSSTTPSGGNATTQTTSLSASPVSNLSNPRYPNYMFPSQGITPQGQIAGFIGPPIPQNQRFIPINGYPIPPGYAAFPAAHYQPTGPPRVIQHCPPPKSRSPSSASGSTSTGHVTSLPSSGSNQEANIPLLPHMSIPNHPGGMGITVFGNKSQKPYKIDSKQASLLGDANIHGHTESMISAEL
substance,measurement,value
2A2-G5-PNU (antibody),"IC50, in vitro cell killing of 697 cells",125 ng/mL
same,"IC50, in vitro cell killing of A549 cells",76.8 µg/mL
same,"IC50, in vitro cell killing of HS 578T cells",1780 ng/mL
same,"IC50, in vitro cell killing of HT-29 cells",19800 ng/mL
same,"IC50, in vitro cell killing of MDA-MB-468 cells",727 ng/mL
